Experimental data published in article PMC3099712 (The Journal of Biological Chemistry, 2011).

Legend:
[1] = molecular target: the molecule itself; assay: SDS-PAGE under reducing and non-reducing conditions
[2] = molecular target: T1, mouse IGFLR1-Fc (extracellular domain of mouse IGFLR1 fused to human IgG1 Fc) (mouse, UniProt Q3U4N7 21-158); assay: SPR
T1 sequence (looked up): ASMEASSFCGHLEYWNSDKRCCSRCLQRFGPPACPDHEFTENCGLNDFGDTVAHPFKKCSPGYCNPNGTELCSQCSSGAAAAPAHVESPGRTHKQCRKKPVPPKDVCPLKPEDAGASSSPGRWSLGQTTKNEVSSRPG

B1: FLAG-mIGFL (mouse insulin growth factor-like protein) (ligand)
chain: ARKISTFSGPGSWPCNPKCDGRTYNPSEECCVHDTILPFKRINLCGPSCTYRPCFELCCPESYSPKKKFIVKLKVHGERSHCSSSPISRNCKSNKIFHGEDIEDNQLSLRKKSGDQP
In the case of B1, the binding result [1] is reported as “binds”, the Kd [2] is reported as 0.15 nM and the koff [2] is reported as 0.000157 s⁻¹. It also gave a kon [2] of 1.02e+06 M⁻¹ s⁻¹.

B2: FLAG-IGFL1 (human insulin growth factor-like family member 1) (ligand)
chain: GAPVAPMTPYLMLCQPHKRCGDKFYDPLQHCCYDDAVVPLARTQTCGNCTFRVCFEQCCPWTFMVKLINQNCDSARTSDDRLCRSVS
B2: binds [1].
